{
  "source": "patent US20100143379A1",
  "about": "(priority 2005, published 2010)",
  "molecules": {"B1": {"name": "MIF: macrophage migration inhibitory factor; recombinant mouse or human MIF purified essentially free of endotoxin (protein)", "chain": "PMFIVNTNVPRASVPDGFLSELTQQLAQATGKPPQYIAVHVVPDQLMAFGGSSEPCALCSLHSIGKIGGAQNRSYSKLLCGLLAERLRISPDRVYINYYDMNAANVGWNNSTFA"}},
  "key": {"ERK-1/2": {"tested_on": "ERK-1/2", "assay": "MAP kinase phosphorylation in differentiating K562 progenitors (Western blot)", "format": "cell-based, human", "details": "K562 in differentiation medium", "protocol": "(§1) MIF addition markedly affected these differentiation-associated, MAP kinase responses.\n(§2) Western Blot Analysis. Immunoblotting with antibodies directed against phospho-ERK1/2, total ERK1/2, phospho-JNK1/2, total JNK1/2, phospho-p38, and total p38 was performed according to the manufacturer's instructions (New England Biolabs, Beverly, Mass.). The secondary antibody was an anti-rabbit IgG conjugated to horseradish peroxidase and detection was by chemiluminescence according to the manufacture's instructions (Amersham Pharmacia Biotech, Piscataway, N.J.). For quantitation of signal intensity of phospho-specific kinase results, western blots were scanned using a UMAX, PowerLook IIII scanner and the images were analyzed using UN-SCAN-IT gel Automated Digitizing system software version 5.1 (Silk Scientific Corporation, USA). The ratio between phosphorylated to the total MAP kinase was determined and expressed as a fold-change for each lane (mean±S.E.M for three blots from independent cell cultures). The p values were calculated for each of the time course comparisons (4, 16, 96 hrs) of three different experiments (Student T-test, two-tailed)."}, "JNK-1/2": {"tested_on": "JNK-1/2", "assay": "MAP kinase phosphorylation in differentiating K562 progenitors (Western blot)", "format": "cell-based, human", "details": "vs differentiation medium alone; did not reach statistical significance (96 hrs, p<0.06)", "protocol": "as §1, §2"}, "p38": {"tested_on": "p38", "assay": "MAP kinase phosphorylation in differentiating K562 progenitors (Western blot)", "format": "cell-based, human", "details": "16 hrs, p<0.01; 96 hrs, p<0.04", "protocol": "as §1, §2"}, "CD74": {"tested_on": "CD74", "assay": "CD74 phospho-serine sandwich ELISA", "format": "cell-based", "details": "MIF 100 ng/ml, 10 mins; COS-7/CD74+CD44 cell line and wild-type MEFs", "protocol": "FIGS. 12A-12E show the phosphoserine content of CD74 and CD44 measured by ELISA. […] The ELISA values represent the mean±SD of triplicate measurements. Experiments were replicated twice. *P<0.02 versus corresponding control (Student's T test, two-tailed). […] Cell lysates were prepared and probed for PKA and PKC using phospho-specific, and total anti-PKA and anti-PKC antibodies.\nThe observation that the phosphoserine content of CD74 increased only in cells that expressed CD74 and full-length CD44 is consistent with the notion that the MIF-mediated phosphorylation of CD74 is dependent on the activity of the CD44 intracytoplasmic domain.\nThe serine phosphorylation of CD74 and CD44 was quantified by specific sandwich ELISA (Perez et al. (2003). Nature Immunol 4:1083-92). […] After several washes (0.5% Tween-20 in PBS), 0.2 μg/ml anti-phospho-serine antibody (Hypromatrix) conjugated with horseradish peroxidase was added, and immunoreactivity measured by the TMB reagent (DakoCytomation) and the data analyzed with SpectraMax Plus (Molecular Devices).\nCell lysates were collected and analyzed by immunoblots using a pair of anti-phospho-PICA and anti-(total)-PKA antibodies, a pair of anti-phospho-PKC (all from Cell Signaling) and anti-(total)-PKC (Santa Cruz) antibodies, or a pair of anti-phospho-p56^lck (Cell Signaling) and anti-(total) p56^lck (sc-433, Santa Cruz) antibodies."}, "CCR5": {"tested_on": "CCR5", "assay": "Cell surface receptor expression in monocyte-derived macrophages (FACS)", "format": "cell-based", "details": "50 ng/ml with PMB 10 μg/ml, 48 h", "protocol": "(§3) Cell surface expression of CCR5 and CXCR4 was analyzed by FACS after staining with FITC-conjugated anti-CCR5 and PE-conjugated anti-CXCR4 antibodies (Pharmingen). Results (percent of receptor-positive cells) are shown as mean±SE for three performed experiments.\n(§4) Cell surface expression of CCR5 and CXCR4 was analyzed by FACS after staining with FITC-conjugated anti-CCR5 and PE-conjugated anti-CXCR4 antibodies (Pharmingen) (FIG. 9)."}, "CXCR4": {"tested_on": "CXCR4", "assay": "Cell surface receptor expression in monocyte-derived macrophages (FACS)", "format": "cell-based", "details": "50 ng/ml with PMB 10 μg/ml, 48 h", "protocol": "as §3, §4"}, "HIV-1ADA": {"tested_on": "HIV-1ADA", "assay": "HIV-1 replication in monocyte-derived macrophage cultures (RT activity)", "format": "cell-based", "details": "recombinant MIF 50 ng/ml", "protocol": "(§5) Triplicate cultures of monocyte-derived macrophages were infected with HIV-1ADA in the presence of anti-MIF MAb (25 μg/ml) or isotype control. Virus replication was monitored by RT activity in culture supernatants. Results are presented as mean±SD. […] Control cultures were cultivated with PMB mixed with an isotype immunoglobulin with or without MIF.\nas §5, with “To investigate this possibility, HIV-infected macrophages were cultured in the presence of a neutralizing anti-MIF antibody or isotype control. Triplicate” for “Triplicate”, “supernatants.” for “supernatants. Results are presented as mean±SD.”"}, "R5 (ADA) strain of HIV-1": {"tested_on": "R5 (ADA) strain of HIV-1", "assay": "HIV-1 replication in PHA-activated PBMC cultures (RT activity)", "format": "cell-based", "details": "50 ng/ml; p<0.01", "protocol": "(§6) At indicated time points after infection, reverse transcriptase activity was measured in culture supernatants. Results are mean±SD. Whereas differences between MIF-treated and control cultures of ADA-infected PBMCs are highly statistically significant (p<0.01), differences between MIF-treated and control cultures of LAI-infected cells are not significant (p>0.05).\nas §6, with “supernatants.” for “supernatants. Results are mean±SD.”, “(p>0.05) (FIG. 8).” for “(p>0.05).”"}, "X4 (LAI) strain of HIV-1": {"tested_on": "X4 (LAI) strain of HIV-1", "assay": "HIV-1 replication in PHA-activated PBMC cultures (RT activity)", "format": "cell-based", "details": "50 ng/ml; p>0.05", "protocol": "as §6\nas §6, with “supernatants.” for “supernatants. Results are mean±SD.”, “(p>0.05) (FIG. 8).” for “(p>0.05).”"}, "[1]": {"tested_on": "COS-7/CD74+CD44 cell line", "assay": "In vitro apoptosis, caspase-3 activity, COS-7 cell lines", "format": "cell-based", "details": "MIF 100 ng/ml; apoptosis inducers SNP and camptothecin, 24 hrs", "protocol": "Apoptosis Studies. […] Cell lysates were collected, and caspase-3 activity analyzed using a colorimetric assay kit (R&D Systems). Cytoplasmic p53 content was analyzed as described previously (Mitchell et al. (2002). Proc Natl Acad Sci USA 99:345-350) by immunoblotting of mouse cytosolic fractions using a pair of anti-phospho-p53 (Ser15) (R&D Systems) and total anti-p53 antibodies (Cell Signaling); and for COS-7 cells, the anti-p53 (Ser15) and total anti-p53 antibodies (Cell Signaling). In vivo apoptosis studies followed the procedures of (Mitchell et al. (2002). Proc Natl Acad Sci USA 99:345-350), and were conducted after i.p injection of 15 mg/kg lipopolysaccharide (E. coli 0111:B4; Sigma). Mice were sacrificed 24 hrs after priming and the peritoneal macrophage cells collected and immediately analyzed for apoptosis by an ELISA that detects cytoplasmic oligonucleosomes (Roche Diagnostics). Primary macrophages also were immunostained by Alexa 488-conjugated, Annexin V (Invitrogen), and apoptotic cells enumerated by fluorescence microscopy."}},
  "data": [
    {"molecule": "B1", "values": [
      {"measurement": "duration of ERK-1/2 phosphorylation", "setting": "ERK-1/2", "value": "at least 96 hrs"},
      {"measurement": "ERK-1/2 phosphorylation", "setting": "ERK-1/2; 16 hrs", "value": "phosphorylation was high at 16 hrs"},
      {"measurement": "JNK-1/2 phosphorylation", "setting": "JNK-1/2", "value": "appeared to upregulate JNK-1/2 phosphorylation"},
      {"measurement": "differentiation-associated changes in p38 MAP kinase phosphorylation", "setting": "p38", "value": "reduced"},
      {"measurement": "phosphorylation of CD74 (phospho-serine content)", "setting": "CD74", "value": "increased significantly"},
      {"measurement": "CCR5 expression", "setting": "CCR5", "value": "substantially reduces CCR5 expression"},
      {"measurement": "CXCR4 expression", "setting": "CXCR4", "value": "without altering expression of CXCR4"},
      {"measurement": "HIV-1 replication (RT activity)", "setting": "HIV-1ADA", "value": "significantly suppressed replication"},
      {"measurement": "R5 HIV-1 replication (RT activity)", "setting": "R5 (ADA) strain of HIV-1", "value": "reduced R5 HIV-1 replication"},
      {"measurement": "X4 HIV-1 replication (RT activity)", "setting": "X4 (LAI) strain of HIV-1", "value": "did not reduce replication"},
      {"measurement": "protection from apoptosis", "setting": "[1]", "value": "significant protective effect"}
    ]}
  ]
}
